Literature values, collected in paper PMC5871712.
Read-outs that look alike come from different tables or passages of the source.

Legend:
[1] = target: CRFR2 (Rattus norvegicus) (UniProt P47866)
[2] = target: CRFR1 (Rattus norvegicus) (UniProt P35353)
[3] = target: CRFR2 (Rattus norvegicus) (UniProt P47866); remark: listed apart in the source
[4] = target: CRFR1 (Rattus norvegicus) (UniProt P35353); remark: listed apart in the source

Sequence of CRFR2 (Rattus norvegicus) (P47866 20-411): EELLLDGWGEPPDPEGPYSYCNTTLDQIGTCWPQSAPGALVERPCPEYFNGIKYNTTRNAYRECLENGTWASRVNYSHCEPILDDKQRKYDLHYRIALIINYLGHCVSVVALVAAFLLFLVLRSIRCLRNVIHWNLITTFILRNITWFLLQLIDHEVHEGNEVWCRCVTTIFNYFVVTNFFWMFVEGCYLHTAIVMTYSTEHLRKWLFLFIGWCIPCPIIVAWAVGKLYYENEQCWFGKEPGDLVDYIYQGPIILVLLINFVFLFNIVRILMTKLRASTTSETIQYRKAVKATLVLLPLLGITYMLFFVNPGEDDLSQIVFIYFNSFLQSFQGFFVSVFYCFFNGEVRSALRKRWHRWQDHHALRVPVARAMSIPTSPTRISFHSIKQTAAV
Sequence of CRFR1 (Rattus norvegicus) (P35353 24-415): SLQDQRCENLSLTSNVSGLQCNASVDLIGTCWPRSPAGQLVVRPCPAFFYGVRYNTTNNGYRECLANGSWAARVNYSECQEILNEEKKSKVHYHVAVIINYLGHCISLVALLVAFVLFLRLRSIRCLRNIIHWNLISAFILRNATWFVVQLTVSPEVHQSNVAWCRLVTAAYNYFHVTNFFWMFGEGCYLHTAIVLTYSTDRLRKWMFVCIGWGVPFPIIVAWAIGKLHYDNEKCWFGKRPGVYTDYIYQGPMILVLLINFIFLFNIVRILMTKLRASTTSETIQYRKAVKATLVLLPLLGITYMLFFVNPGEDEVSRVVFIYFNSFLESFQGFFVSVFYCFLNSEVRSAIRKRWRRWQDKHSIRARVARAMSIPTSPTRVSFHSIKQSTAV
Sequence of Ucn1 (P55090 81-122): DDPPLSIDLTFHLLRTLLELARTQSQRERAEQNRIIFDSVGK
Sequence of CRF (P01143 145-187): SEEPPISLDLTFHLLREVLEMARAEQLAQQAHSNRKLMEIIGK

In the case of CRF (from UniProt P01143), the Ki [1] is listed as 42 nM and the Ki [2] is listed as 1.6 nM.

In the case of Ucn1 (from UniProt P55090), the Ki [3] is given as 0.86 nM and the Ki [4] is given as 0.17 nM.
